Measurements taken from paper PMC9352680, “A comprehensive thermodynamic model for RNA binding by the Saccharomyces cerevisiae Pumilio protein PUF4”.
Numbering of substitutions follows the chain as printed. Names may count otherwise.

T1: PUF4 RNA-binding domain (Saccharomyces cerevisiae, UniProt P25339 537-888)
T1 sequence: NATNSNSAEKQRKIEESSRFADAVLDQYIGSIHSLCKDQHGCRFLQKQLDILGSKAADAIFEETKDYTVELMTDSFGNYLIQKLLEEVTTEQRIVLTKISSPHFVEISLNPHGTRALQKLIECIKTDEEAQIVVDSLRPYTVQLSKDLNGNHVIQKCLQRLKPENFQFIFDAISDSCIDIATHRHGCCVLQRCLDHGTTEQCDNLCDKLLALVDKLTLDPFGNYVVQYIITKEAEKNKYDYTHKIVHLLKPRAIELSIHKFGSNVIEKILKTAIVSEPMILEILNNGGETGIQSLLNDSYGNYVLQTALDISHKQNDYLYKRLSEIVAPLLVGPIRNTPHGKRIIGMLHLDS

B1: Ic_S4_P4E.1_K4.1_C4.1_H4.1_A4.1_[T5A]_[A6T]_[T7C]_F4.1_[T8A]_[A9C]_T4.1 (ssRNA)
RNA: UUUGACAACUGAUCGUUCUUUCUUGUAAUCACUUCUUUCUCGAUCAGUUGUCUUU
B2: Ic_S4_P4E.1_K4.1_C4.1_H4.1_A4.1_[T5A]_[A6C]_[T7C]_F4.1_[A9T]_T4.1 (ssRNA)
RNA: B1 RNA with U29C, A31U, C32U
B3: Ic_S4_P4E.1_K4.1_C4.1_H4.1_A4.1_[T5A]_[A6T]_[T7C]_F4.1_[T8A]_[A9G]_T4.1 (ssRNA)
RNA: B1 RNA with C32G
B4: Ic_S4_P4E.1_K4.1_C4.1_H4.1_A4.1_[T5C]_[T7A]_F4.1_[A9C]_T4.1 (ssRNA)
RNA: B1 RNA with A28C, U29A, C30A, A31U
B5: Ic_S4_P4E.1_K4.1_C4.1_H4.1_A4.1_[T5A]_[A6C]_F4.1_[T8C]_T4.1 (ssRNA)
RNA: B1 RNA with U29C, C30U, A31C, C32A
B6: Ic_S4_P4E.1_K4.1_C4.1_H4.1_A4.1_[T5A]_[A6T]_[T7C]_F4.1_[A9T]_T4.1 (ssRNA)
RNA: B1 RNA with A31U, C32U
B7: Ic_S4_P4E.1_K4.1_C4.1_H4.1_A4.1_[T5C]_[T7C]_F4.1_[A9T]_T4.1 (ssRNA)
RNA: B1 RNA with A28C, U29A, A31U, C32U
B8: Ic_S4_P4E.1_K4.1_C4.1_H4.1_A4.1_[T5A]_[A6C]_[T7G]_F4.1_[T8C]_[A9T]_T4.1 (ssRNA)
RNA: B1 RNA with U29C, C30G, A31C, C32U
B9: Ic_S4_P4E.1_K4.1_C4.1_H4.1_A4.1_[T5A]_[A6C]_[T7G]_F4.1_[T8G]_[A9T]_T4.1 (ssRNA)
RNA: B1 RNA with U29C, C30G, A31G, C32U
B10: Ic_S4_P4E.1_K4.1_C4.1_H4.1_A4.1_[T5A]_[A6C]_[T7G]_F4.1_[A9C]_T4.1 (ssRNA)
RNA: B1 RNA with U29C, C30G, A31U
B11: Ic_S4_P4E.1_K4.1_C4.1_H4.1_A4.1_[T5C]_F4.1_[T8A]_[A9T]_T4.1 (ssRNA)
RNA: B1 RNA with A28C, U29A, C30U, C32U
B12: Ic_S4_P4E.1_K4.1_C4.1_H4.1_A4.1_[T5C]_F4.1_[T8C]_[A9T]_T4.1 (ssRNA)
RNA: B1 RNA with A28C, U29A, C30U, A31C, C32U
B13: Ic_S4_P4E.1_K4.1_C4.1_H4.1_A4.1_[T5A]_[A6C]_[T7A]_F4.1_[T8A]_[A9C]_T4.1 (ssRNA)
RNA: B1 RNA with U29C, C30A
B14: Ic_S4_P4E.1_K4.1_C4.1_H4.1_A4.1_[T5A]_[A6C]_F4.1_[T8G]_[A9T]_T4.1 (ssRNA)
RNA: B1 RNA with U29C, C30U, A31G, C32U
B15: Ic_S4_P4E.1_K4.1_C4.1_H4.1_A4.1_[T5A]_[A6C]_F4.1_[A9G]_T4.1 (ssRNA)
RNA: B1 RNA with U29C, C30U, A31U, C32G
B16: Ic_S4_P4E.1_K4.1_C4.1_H4.1_A4.1_[T5A]_[A6C]_F4.1_[T8A]_[A9C]_T4.1 (ssRNA)
RNA: B1 RNA with U29C, C30U
B17: Ic_S4_P4E.1_K4.1_C4.1_H4.1_A4.1_[T5A]_[A6C]_[T7A]_F4.1_[T8G]_[A9T]_T4.1 (ssRNA)
RNA: B1 RNA with U29C, C30A, A31G, C32U
B18: Ic_S4_P4E.1_K4.1_C4.1_H4.1_A4.1_[T5A]_[A6C]_[T7G]_F4.1_[A9T]_T4.1 (ssRNA)
RNA: B1 RNA with U29C, C30G, A31U, C32U
B19: Ic_S4_P4E.1_K4.1_C4.1_H4.1_A4.1_[T5A]_[A6C]_[T7A]_F4.1_[T8C]_[A9C]_T4.1 (ssRNA)
RNA: B1 RNA with U29C, C30A, A31C
B20: Ic_S4_P4E.1_K4.1_C4.1_H4.1_A4.1_[T5A]_[A6C]_[T7G]_F4.1_T4.1 (ssRNA)
RNA: B1 RNA with U29C, C30G, A31U, C32A
B21: Ic_S4_P4E.1_K4.1_C4.1_H4.1_A4.1_[T5C]_[T7A]_F4.1_[T8A]_T4.1 (ssRNA)
RNA: B1 RNA with A28C, U29A, C30A, C32A
B22: Ic_S4_P4E.1_K4.1_C4.1_H4.1_A4.1_[T5C]_F4.1_[A9G]_T4.1 (ssRNA)
RNA: B1 RNA with A28C, U29A, C30U, A31U, C32G
B23: Ic_S4_P4E.1_K4.1_C4.1_H4.1_A4.1_[T5A]_[A6T]_[T7G]_F4.1_[T8C]_[A9C]_T4.1 (ssRNA)
RNA: B1 RNA with C30G, A31C

Target: T1, PUF4 RNA-binding domain
Assay: Mg; RNA-MaP; 20 mM Na-HEPES pH 7.4, 30 mM KOAc, 0.75 mM MgCl2, 0.1% Tween-20, 5% glycerol, 0.1 mg/mL BSA, 2 mM DTT; 25 C; 0.0125-409.6 nM protein
Details: tags: N-His6-TEV cleaved; C-SNAP kept, Cy3B-labelled; label: tethered on chip by stalled RNA polymerase

Row | Binder | Kd [nM]
1 | B1 | 1050
2 | B2 | 31.1
3 | B3 | 1080
4 | B4 | 22.1
5 | B5 | 281
6 | B6 | 34.8
7 | B7 | 4.37
8 | B8 | 205
9 | B9 | 1290
10 | B10 | 919
11 | B11 | 1.55
12 | B12 | 11.1
13 | B13 | 1050
14 | B14 | 95.2
15 | B15 | 84.8
16 | B16 | 287
17 | B17 | 604
18 | B18 | 84.3
19 | B19 | 215
20 | B20 | 14.5
21 | B21 | 13.8
22 | B22 | 3.85
23 | B23 | 1200
24 | UCUCUUUGUCUAUUAUCUCUU (ssRNA) [Ia_S1_P4E.1_K4.1_C4.1_H4.1_[A4C]_A4.1_F4.1_T4.1] | 12.7
25 | UCUCUUUGUAUAUGUCUCUU (ssRNA) [Ia_S1_P3E.1_K3.1_C3.1_H3.1_A3.1_F3.1_[A8G]_T3.1] | 17
26 | UCUCUUUGUAUUUCAUCUCUU (ssRNA) [Ib_S1_P4E.1_K4.1_C4.1_H4.1_A4.1_[A6T]_F4.1_[T8C]_T4.1] | 69.6
27 | UCUCUUUGUAUCUCAUCUCUU (ssRNA) [Ib_S1_P4E.1_K4.1_C4.1_H4.1_A4.1_[A6C]_F4.1_[T8C]_T4.1] | 34.6
28 | UCUCUUUGUAUUUGAUCUCUU (ssRNA) [Ib_S1_P4E.1_K4.1_C4.1_H4.1_A4.1_[A6T]_F4.1_[T8G]_T4.1] | 458
29 | UCUCUUUGUAUGUCAUCUCUU (ssRNA) [Ic_S1_P4E.1_K4.1_C4.1_H4.1_A4.1_[A6G]_F4.1_[T8C]_T4.1] | 384
